Measured values: paper PMC4720616, “Influence of tumour size on the efficacy of targeted alpha therapy with ^213Bi-[DOTA^0,Tyr^3]-octreotate” (EJNMMI Research, 2016)

What was measured:
[1] = tested on: H69 (human small cell lung carcinoma) tumours; assay: Targeted alpha therapy: tumour growth and survival, H69 tumours; type: in vivo, human tumour cells in BALB/c (nu/nu) nude mice; conditions: for Mean time to reach a tumour volume of 2000 mm^3: i.v. 2–4 MBq/0.3 nmol ^213Bi-DOTATATE or 0.3 nmol unlabelled DOTATATE (control) on three consecutive days, mean ± SD; for Median survival: follow-up 90 days after treatment
Description: (§1) All animal studies were in agreement with the Animal Welfare Committee requirements of Erasmus MC and conducted in accordance with accepted guidelines. Male 6–8-week-old BALB/c (nu/nu) nude mice were obtained from Charles River (Kißlegg, Germany). Subcutaneous tumours were established in mice by inoculation of approximately 5 × 10^6 cells (CA20948 or H69), suspended in 200 μL sterile culture medium Hanks’ balanced salt solution (HBSS) in the case of CA20948 cells. Three days after inoculation of CA20948 cells, a tumour with a tumour size ~50 mm^3 (used for the “smaller” tumour-size group) was reached, and 2 weeks after inoculation, a tumour size ~200 mm^3 (used for the “larger” tumour-size group) was reached. For H69 cells, 200 μL, containing 1/3 Matrigel and 2/3 HBSS medium (Gibco, Life Technologies), was used. The cells were injected subcutaneously (s.c.) into the right flank of the mice. One week after inoculation of tumour cells, tumours with a volume of ~50 mm^3 (used for the smaller tumour-size group) could be detected, and after 3 weeks, tumour volumes reached ~200 mm^3 (used for the larger tumour-size group). Tumour volumes were estimated using a calliper.
(§2) Tumour cells were inoculated into the right flank of the mice, and the tumours were allowed to grow until tumour volumes of approximately 50 and 200 mm^3 were reached, respectively. […] The control group (H69-bearing animals: small tumour n = 10, large tumour n = 9; CA20948-bearing animals: small tumour n = 5, large tumour n = 5) received i.v. via the tail vein three times 0.3 nmol/200 μL of unlabelled DOTATATE for three consecutive days.
(§3) All animals were followed for 90 days after treatment. The behaviour and the health status of the animals were observed daily, and the weight of the animals and the tumour volumes were monitored twice a week.

[2] = tested on: CA20948 (rat pancreatic tumour) tumours; assay: Targeted alpha therapy: tumour growth and survival, CA20948 tumours; type: in vivo, rat tumour cells in BALB/c (nu/nu) nude mice; conditions: for Mean time to reach a tumour volume of 2000 mm^3: i.v. 2–4 MBq/0.3 nmol ^213Bi-DOTATATE or 0.3 nmol unlabelled DOTATATE (control) on three consecutive days, mean ± SD; for Median survival: follow-up 90 days after treatment
Description: as §1, §2, §3

in vivo = assay: in vivo; parameters: species or system BALB/c (nu/nu) nude mice; conditions: BALB/c (nu/nu) nude, mouse, iv, total radioactivity
Description: (§4) When tumour volumes reached ~120 mm^3, animals were divided into five groups with seven animals in each group for both H69 and CA20948 tumour-bearing animals. […] At 10, 30, 60 and 120 min post injection (p.i.), animals in the four groups were euthanized and tissues and organs of interest (including tumour, kidney, pancreas, spleen, liver, muscle, blood, femur, femur marrow and adrenals) were collected and counted using a gamma counter (Wallac Wizard 3, PerkinElmer, USA). […] The animals of the control group were euthanized 60 min p.i.; tissues and organs of interest were harvested and counted using a gamma counter. Data was expressed in mean percentage of total injected radioactivity per gram tissue (%IA/g) ± SD.

H69 tumour-bearing mice = assay: in vivo; parameters: species or system BALB/c (nu/nu) nude mice; conditions: mouse, iv
Description: as §4

[3] = tested on: CA20948 tumour-bearing mice; assay: in vivo; parameters: species or system BALB/c (nu/nu) nude mice; conditions: mouse, iv
Description: as §4

kidney = conditions: mouse, in vivo
[4] = in the absence of L-lysine; ref manuscript in preparation; cited from earlier work
Text: In patients, the maximum tolerated dose in kidney is postulated to b ...

[5] = H69 small tumours, after treatment
[6] = 3.8 MBq/0.3 nmol/200 uL, Uptake, Adrenal
[7] = 3.8 MBq/0.3 nmol/200 uL, Uptake, Blood
[8] = 3.8 MBq/0.3 nmol/200 uL, Uptake, Femur
[9] = 3.8 MBq/0.3 nmol/200 uL, Uptake, Kidney
[10] = 3.8 MBq/0.3 nmol/200 uL, Uptake, Liver
[11] = 3.8 MBq/0.3 nmol/200 uL, Uptake, Muscle
[12] = 3.8 MBq/0.3 nmol/200 uL, Uptake, Tumour

SMILES: C[C@@H](O)[C@H](NC(=O)[C@@H]1CSSC[C@H](NC(=O)[C@@H](Cc2ccccc2)NC(=O)CN2CCN(CC(=O)O)CCN(CC(=O)O)CCN(CC(=O)O)CC2)C(=O)N[C@@H](Cc2ccc(O)cc2)C(=O)N[C@H](Cc2c[nH]c3ccccc23)C(=O)N[C@@H](CCCCN)C(=O)N[C@@H]([C@@H](C)O)C(=O)N1)C(=O)O [^213Bi-DOTATATE, ^213Bi-[DOTA^0, Tyr^3]-octreotate, metal not drawn]
- Tumour response ([1]; H69 large tumours): partial response
- Mean time to reach a tumour volume of 2000 mm^3 ([1]; H69 large tumours (~200 mm^3)): 110 ± 19 days
- Effect on tumour volume ([1]; H69 large tumours, cumulative injected activity 9.4 ± 0.7 MBq): Shrinkage of tumours was observed
- Median survival ([1]; H69 large tumours): > 90 days
- Mean time to reach a tumour volume of 2000 mm^3 ([1]; H69 small tumours (~50 mm^3)): 102 ± 19 days
- Animals with partial response [1, 5]: eight
- Animals with stable disease [1, 5]: two
- Animals with no tumour regrowth until the end of the study at day 90 ([1]; H69 small tumours, n = 10 treated): two
- Median survival ([1]; H69 small tumours): > 90 days
- Tumour response ([2]; CA20948 large tumours): partial response
- Mean time to reach a tumour volume of 2000 mm^3 ([2]; CA20948 large tumours (~200 mm^3)): 77 ± 25 days
- Median survival ([2]; CA20948 large tumours): 70 days
- Mean time to reach a tumour volume of 2000 mm^3 ([2]; CA20948 small tumours (~50 mm^3)): 76 ± 15 days
- Animals with stable disease till the end of the study ([2]; CA20948 small tumours, after therapy): one
- Animals with no tumour regrowth ([2]; CA20948 small tumours, n = 8 treated): one
- Median survival ([2]; CA20948 small tumours): > 90 days
- tissue uptake at 10 min (in vivo; 2.1 MBq/0.3 nmol/200 uL, Uptake, Kidney): 51.5 ± 16.6 %ID/g
- tissue uptake at 2 h (in vivo; 2.1 MBq/0.3 nmol/200 uL, Uptakes in other organs (other than tumour and kidney)): < 2 %ID/g
- tissue uptake at 2 h (in vivo; 3.8 MBq/0.3 nmol/200 uL, Uptake in all other organs (other than tumour and kidney)): < 2 %ID/g
- tissue uptake at 0.5 h (in vivo; [6]): 2 ± 0.6 %ID/g
- tissue uptake at 1 h (in vivo; [6]): 0.9 ± 0.4 %ID/g
- tissue uptake at 2 h (in vivo; [6]): 0.7 ± 0.4 %ID/g
- tissue uptake at 10 min (in vivo; [7]): 8.1 ± 1.8 %ID/g
- tissue uptake at 0.5 h (in vivo; [7]): 2.3 ± 1.1 %ID/g
- tissue uptake at 1 h (in vivo; [7]): 0.6 ± 0.2 %ID/g
- tissue uptake at 2 h (in vivo; [7]): 0.1 ± 0.06 %ID/g
- tissue uptake at 0.5 h (in vivo; [8]): 1.5 ± 0.4 %ID/g
- tissue uptake at 1 h (in vivo; [8]): 1 ± 0.5 %ID/g
- tissue uptake at 2 h (in vivo; [8]): 0.4 ± 0.4 %ID/g
- tissue uptake at 10 min (in vivo; [9]): 44 ± 9.6 %ID/g
- tissue uptake at 0.5 h (in vivo; [9]): 28.5 ± 3.7 %ID/g
- tissue uptake at 1 h (in vivo; [9]): 26.2 ± 2.6 %ID/g
- tissue uptake at 2 h (in vivo; [9]): 25 ± 3.8 %ID/g
- tissue uptake at 0.5 h (in vivo; [10]): 0.9 ± 0.09 %ID/g
- tissue uptake at 1 h (in vivo; [10]): 0.4 ± 0.06 %ID/g
- tissue uptake at 2 h (in vivo; [10]): 0.3 ± 0.05 %ID/g
- tissue uptake at 0.5 h (in vivo; [11]): 1.1 ± 0.2 %ID/g
- tissue uptake at 1 h (in vivo; [11]): 1 ± 1.4 %ID/g
- tissue uptake at 2 h (in vivo; [11]): 0.5 ± 0.4 %ID/g
- tissue uptake at 10 min (in vivo; 3.8 MBq/0.3 nmol/200 uL, Uptake, Pancreas): 3.2 ± 0.3 %ID/g
- tissue uptake at 10 min (in vivo; [12]): 7.5 ± 2.2 %ID/g
- tissue uptake at 0.5 h (in vivo; [12]): 9.8 ± 2.4 %ID/g
- tissue uptake at 1 h (in vivo; [12]): 9.8 ± 2.3 %ID/g
- tissue uptake at 2 h (in vivo; [12]): 6.8 ± 3.2 %ID/g
- Blood clearance T1/2 (H69 tumour-bearing mice): 11 ± 2 min
- Tumour clearance T1/2 (H69 tumour-bearing mice): 138 ± 66 min
- Tumour uptake T1/2 (H69 tumour-bearing mice): 7 ± 2 min
- Blood clearance T1/2 [3]: 14 ± 1 min
- Renal clearance T1/2 [3]: 10 ± 3 min
- Tumour clearance T1/2 [3]: 132 ± 54 min
- Kidney histology, control vs treated animals (kidney): no significant differences were observed
- Maximum tolerated activity [4]: < 13.1 ± 1.2 MBq
